One data set addresses T1, LANA 1-950 (Kaposi's sarcoma-associated herpesvirus).
T1 chain: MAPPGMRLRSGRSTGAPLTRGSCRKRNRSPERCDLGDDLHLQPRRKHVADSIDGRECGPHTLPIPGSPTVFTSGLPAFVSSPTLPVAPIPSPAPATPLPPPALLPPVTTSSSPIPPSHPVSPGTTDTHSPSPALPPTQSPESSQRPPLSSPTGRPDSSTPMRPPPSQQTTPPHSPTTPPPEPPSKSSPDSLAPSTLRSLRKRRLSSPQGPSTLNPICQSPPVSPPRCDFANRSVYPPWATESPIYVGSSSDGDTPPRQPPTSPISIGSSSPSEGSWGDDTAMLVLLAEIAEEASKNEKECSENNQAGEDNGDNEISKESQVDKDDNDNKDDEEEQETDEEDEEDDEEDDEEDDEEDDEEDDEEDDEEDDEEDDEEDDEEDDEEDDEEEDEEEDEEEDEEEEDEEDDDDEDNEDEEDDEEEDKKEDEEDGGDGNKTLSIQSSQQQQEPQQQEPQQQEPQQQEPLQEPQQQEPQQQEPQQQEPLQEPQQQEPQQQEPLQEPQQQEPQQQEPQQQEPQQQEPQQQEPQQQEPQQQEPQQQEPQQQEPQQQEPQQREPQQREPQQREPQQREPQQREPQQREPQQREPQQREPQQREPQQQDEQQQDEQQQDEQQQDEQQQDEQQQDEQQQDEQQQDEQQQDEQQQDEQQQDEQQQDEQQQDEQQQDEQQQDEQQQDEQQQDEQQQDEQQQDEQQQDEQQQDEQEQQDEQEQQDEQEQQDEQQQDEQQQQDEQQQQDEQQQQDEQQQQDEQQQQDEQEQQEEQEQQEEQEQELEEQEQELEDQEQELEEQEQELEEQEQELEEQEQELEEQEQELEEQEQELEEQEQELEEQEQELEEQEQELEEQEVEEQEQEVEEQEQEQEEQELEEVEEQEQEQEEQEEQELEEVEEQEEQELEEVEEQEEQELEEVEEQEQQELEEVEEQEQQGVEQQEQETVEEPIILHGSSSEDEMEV
Description: EMSA. The settings on record: label: radiolabel. On the technique in general: A gel shift assay detects complexes by their altered migration in electrophoresis.

A further data set addresses LANA 9-11 (last 237 aa) (Kaposi's sarcoma-associated herpesvirus, UniProt Q9QR71 SEQ:926-1162). The data set can be described thus: EMSA; lacks leucine zipper; anti-LANA supershift. The conditions noted are these: tags: GST; label: radiolabel.

Sequence of LANA 9-11 (last 237 aa) (Q9QR71 893-1129): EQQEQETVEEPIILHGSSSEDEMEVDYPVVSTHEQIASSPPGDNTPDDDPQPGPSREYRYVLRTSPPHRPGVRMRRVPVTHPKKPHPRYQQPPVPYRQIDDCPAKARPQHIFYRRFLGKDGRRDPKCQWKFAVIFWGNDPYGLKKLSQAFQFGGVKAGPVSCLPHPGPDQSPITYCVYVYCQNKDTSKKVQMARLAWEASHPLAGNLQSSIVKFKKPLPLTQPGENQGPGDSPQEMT

B1: TLBR4 (dsDNA)
DNA 1: TCCCGCCCGGGCATGGG
DNA 2: CCCATGCCCGGGCGGGA
With B1, the binding result is “no binding” with LANA 1-950 and “binds” with LANA 9-11 (last 237 aa).

(Values after US20040248081, “LANA viral protein binding sites” (THE REGENTS OF THE UNIVERSITY OF MICHIGAN, published 2004).)
